Here are results for two substances from publication PMC3315329.

In assay [1] the target is 40S ribosomal subunits of asc1Δ cells (lacking ASC1) (S. cerevisiae (endogenous in yeast)) (UniProt P32905). Description: cross-linking + co-sedimentation.
Assay [2] addresses 40S ribosomal subunits (wild type) (S. cerevisiae (endogenous in yeast)) (UniProt P38011). Description: cross-linking + co-sedimentation.
Chain of UniProt P38011 (P38011 whole entry, looked up, tested part not stated): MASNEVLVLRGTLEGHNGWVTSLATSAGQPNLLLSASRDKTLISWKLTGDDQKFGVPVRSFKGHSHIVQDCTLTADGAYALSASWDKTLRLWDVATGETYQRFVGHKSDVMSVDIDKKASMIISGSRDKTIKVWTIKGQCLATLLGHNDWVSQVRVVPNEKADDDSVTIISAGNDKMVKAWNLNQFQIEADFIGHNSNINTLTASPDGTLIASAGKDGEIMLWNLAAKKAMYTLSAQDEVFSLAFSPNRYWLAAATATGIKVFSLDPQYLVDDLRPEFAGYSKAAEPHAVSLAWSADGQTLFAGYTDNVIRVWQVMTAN

Chain of UniProt P32905 (P32905 whole entry, looked up, stated change not applied, tested part not stated): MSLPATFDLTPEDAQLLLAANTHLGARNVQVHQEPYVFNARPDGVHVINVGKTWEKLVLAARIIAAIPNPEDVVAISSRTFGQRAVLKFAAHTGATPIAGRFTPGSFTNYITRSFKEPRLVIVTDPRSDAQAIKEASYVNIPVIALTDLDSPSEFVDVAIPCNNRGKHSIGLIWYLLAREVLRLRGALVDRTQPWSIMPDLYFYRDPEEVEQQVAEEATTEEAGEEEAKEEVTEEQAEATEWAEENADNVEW

As for “eIF2 (from UniProt P20459 1-304; P09064 1-285; P32481 1-527) (complex)”, in assay [1], the reduction of the 40S-associated amount relative to wt turned out to be 50%.

As for “eIF5 (from UniProt P38431 1-405) (natural protein)”, the reduction of the 40S-associated amount relative to wt in assay [1] came out at 50%. Also, in assay [2], the reduction of the 40S-bound amount in nip1-Δ60 cells relative to wt amounted to 20% and the reduction of the eIF/40S ratio in nip1-743A752 cells relative to wt is 60%.
